According to article PMC5932034, “Structures of chaperone-substrate complexes docked onto the export gate in a type III secretion system” (Nature Communications, 2018):

Tests used:
Details in all cases: both partners purified
[1] = molecular target: T1, FliT (Salmonella enterica serovar Typhimurium …, UniProt P0A1N2 1-122); experiment: crystal structure; ternary complexes of FlhA^C with the fused chaperone–substrate constructs; proteins at 10 g/L
T1 construct: FliT, flagellar chaperone of FliD, Salmonella enterica serovar Typhimurium ST313; Used free in the NMR titration; in the structures it stands as the FliT part of the fused chain m9; also called flagellar chaperone FliT; substrate-free FliT; source: E. coli BL21(DE3), purified (Ni Sepharose, TEV tag removal, Superdex 75)
T1 sequence: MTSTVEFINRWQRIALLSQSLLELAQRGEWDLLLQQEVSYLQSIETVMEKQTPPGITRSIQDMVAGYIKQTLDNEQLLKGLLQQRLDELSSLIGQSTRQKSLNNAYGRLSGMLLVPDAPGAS

[2] = molecular target: T2, cytoplasmic domain of Salmonella enterica serovar Typhimurium FlhA (FlhA^C) (Salmonella enterica serovar Typhimurium …, UniProt P40729 362-692); experiment: ITC; FlhA^C and variants (0.1–0.2 mM) in the cell, FliT-FliD, FliS-FliC and variants (1.0–2.0 mM) in the syringe; 25 °C; 50 mM NaPi pH 6.8, 300 mM NaCl, 0.05% NaN3; one-site binding model
T2 construct: FlhA, globular cytoplasmic domain, Salmonella enterica serovar Typhimurium ST313, residues 362-692 (36.4 kDa); also called export gate platform protein; source: E. coli BL21(DE3), purified (Ni Sepharose, TEV tag removal, Superdex 75)
T2 sequence: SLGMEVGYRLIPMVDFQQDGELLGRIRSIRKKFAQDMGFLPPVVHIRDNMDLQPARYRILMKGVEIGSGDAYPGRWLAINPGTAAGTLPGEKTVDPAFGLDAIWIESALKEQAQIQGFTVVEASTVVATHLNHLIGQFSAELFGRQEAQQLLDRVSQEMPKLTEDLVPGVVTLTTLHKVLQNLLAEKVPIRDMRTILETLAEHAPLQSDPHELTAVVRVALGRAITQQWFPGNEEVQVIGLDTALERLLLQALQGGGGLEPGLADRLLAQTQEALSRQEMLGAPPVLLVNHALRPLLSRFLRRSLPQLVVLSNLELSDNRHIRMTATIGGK

[3] = molecular target: T3, FliS (UniProt P26609 1-135); experiment: crystal structure; ternary complexes of FlhA^C with the fused chaperone–substrate constructs; proteins at 10 g/L
T3 construct: FliS, flagellar chaperone of flagellin FliC; Used free in the NMR titration; in the crystal structure it stands as the FliS part of the fused chain m10; also called flagellar chaperone FliS; substrate-free FliS; source: E. coli BL21(DE3), purified (Ni Sepharose, TEV tag removal, Superdex 75)
T3 sequence: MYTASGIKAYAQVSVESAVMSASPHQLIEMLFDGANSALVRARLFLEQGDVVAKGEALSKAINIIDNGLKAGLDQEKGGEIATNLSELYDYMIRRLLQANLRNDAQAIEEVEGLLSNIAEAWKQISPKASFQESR

[4] = molecular target: T2, cytoplasmic domain of Salmonella …; experiment: NMR titration; unlabelled partner added to isotopically labelled FlhA^C (and unlabelled FlhA^C to labelled chaperone–substrate complex); 25 °C; 50 mM NaPi pH 6.8, 300 mM NaCl, 0.05% NaN3; typically 0.3 mM labelled protein

B1: FliD^C (last 40 C-terminal residues of FliD) (domain or fragment)
chain: SIDETVARYKAQFTQLDTMMSKLNNTSSYLTQQFTAMNKS
notes: source: E. coli BL21(DE3), purified; stands as a part of the fused chain m9
- binding result [1]: binds

B2: FliS−FliC chaperone–substrate complex (non-fused) (complex)
chain 1: T3 sequence
chain 2: […]
notes: FliS; FliC, flagellin; Complex formed beforehand and added to FlhA^C; source: E. coli BL21(DE3), purified (Ni Sepharose, TEV tag removal, Superdex 75)
- Kd [2]: ~8 µM

B3: FliC^C (FliC residues 454–495) (domain or fragment)
chain: IEDSDYATEVSNMSRAQILQQAGTSVLAQANQVPQNVLSLLR
notes: FliC^C: flagellin FliC residues 454-495;; source: E. coli BL21(DE3), purified; stands as a part of the fused chain m10
- binding result [3]: binds

B4: FlgN (natural protein)
chain: MTRLSEILDQMTTVLNDLKTVMDAEQQQLSVGQINGSQLQRITEEKSSLLATLDYLEQQRRLEQNAQRSANDDIAERWQAITEKTQHLRDLNQHNGWLLEGQIERNQQALEVLKPHQEPTLYGADGQTSVSHRGGKKISI
notes: FlgN, chaperone of FlgK and FlgL, Salmonella enterica serovar Typhimurium ST313; also called chaperone FlgN; FlgN without substrate; source: E. coli BL21(DE3), purified (Ni Sepharose, TEV tag removal, Superdex 75)
- binding result [4]: binds
